Like-named read-outs stand apart in the source and are kept apart here.
T1: deamidase polypeptide from Chryseobacterium defluvii (deamidase domain of the fusion polypeptide SEQ ID NO: … (Chryseobacterium defluvii))
T1 chain: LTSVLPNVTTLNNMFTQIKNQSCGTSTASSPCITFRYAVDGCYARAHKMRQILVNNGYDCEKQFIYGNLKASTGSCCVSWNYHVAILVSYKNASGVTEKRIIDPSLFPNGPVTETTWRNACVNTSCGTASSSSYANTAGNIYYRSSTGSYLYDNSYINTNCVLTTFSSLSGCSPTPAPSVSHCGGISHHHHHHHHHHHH

T2: deamidase polypeptide from Chryseobacterium gambrini (deamidase domain of the fusion polypeptide SEQ ID NO: … (Chryseobacterium gambrini))
T2 chain: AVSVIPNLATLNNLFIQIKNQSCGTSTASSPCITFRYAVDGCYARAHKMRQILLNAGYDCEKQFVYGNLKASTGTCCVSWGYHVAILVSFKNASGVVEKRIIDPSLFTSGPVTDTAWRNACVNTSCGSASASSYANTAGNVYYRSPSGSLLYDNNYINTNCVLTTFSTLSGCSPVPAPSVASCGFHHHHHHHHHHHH

T3: deamidase polypeptide from Chryseobacterium culicis (deamidase domain of the fusion polypeptide SEQ ID NO: 15) (Chryseobacterium culicis)
T3 chain: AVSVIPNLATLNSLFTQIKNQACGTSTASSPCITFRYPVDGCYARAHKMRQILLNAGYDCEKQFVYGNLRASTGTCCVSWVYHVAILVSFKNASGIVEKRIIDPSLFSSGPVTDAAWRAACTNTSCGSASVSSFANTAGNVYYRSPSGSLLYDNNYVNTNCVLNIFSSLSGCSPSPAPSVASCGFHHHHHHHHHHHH

T4: deamidase polypeptide from Chryseobacterium sp-62563 (deamidase domain of the pro-form SEQ ID NO: 5) (Chryseobacterium sp-62563)
T4 chain: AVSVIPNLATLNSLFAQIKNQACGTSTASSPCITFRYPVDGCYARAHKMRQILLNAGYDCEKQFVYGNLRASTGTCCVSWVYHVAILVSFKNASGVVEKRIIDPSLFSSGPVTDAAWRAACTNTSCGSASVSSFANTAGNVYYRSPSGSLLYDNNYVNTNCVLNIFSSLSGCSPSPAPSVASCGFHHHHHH


Assays:
Assay in all cases: cell-based or functional assay
[1] = target: T1, deamidase polypeptide from …
[2] = target: T2, deamidase polypeptide from …
[3] = target: T3, deamidase polypeptide from …
[4] = target: T4, deamidase polypeptide from …
[5] = target: T4, deamidase polypeptide from …
[6] = target: T4, deamidase polypeptide from …
[7] = target: T4, deamidase polypeptide from …

NanoDSF thermal unfolding temperature [5] [°C] | Leakage activity [6] [%] | Relative activity of "activated" sample (% initial rate) [7] [%] | Binder | other results
– | – | – | propeptide from Chryseobacterium defluvii (propeptide domain of the fusion polypeptide SEQ ID NO: 20) (other) ATNQDVVGKENTSNHVAARDFGKTVPVGINEENGTLKVSFILSAQFYEIKPSKENEEYISLIRQAIQNESPIHVFMKLNSNEIVKVEKGTEEDVKYFRSILTKEVKEENRK | NanoDSF thermal unfolding temperature [1]: 89 °C
– | – | – | propeptide from Chryseobacterium gambrini (propeptide domain of the fusion polypeptide SEQ ID NO: 10) (other) NQDPNLVVKENNENAMRDFGSTIPVGIQKEGNVLKVSFIISAQFYEIKDSKENEAFISMIKSAIENETPVHVFLKKNSNEIAKVEKATDEDVTYFKSIFTKEVKEENRK | NanoDSF thermal unfolding temperature [2]: 89.3 °C
– | – | – | propeptide from Chryseobacterium culicis (propeptide domain of the fusion polypeptide SEQ ID NO: 15) (other) NQDPNLVAKESNEIAMKDFGKTVPVGIEKEEGKFKVSFMVSAQPYHIKDSKENAGYISMIRQAVENETPVHIFLKTNTNEIAKVDKPTDDDIRYFKSVFTKEVKEENRK | NanoDSF thermal unfolding temperature [3]: 85.2 °C
– | – | – | propeptide from Chryseobacterium sp-62563 (wildtype propeptide domain of the protein glutamine deamidase pro-form SEQ ID NO: 5) (other) NQDPNLVAKESNETAMKDFGKTVPVGIEKEDGKFKISFMVTAQPYEIKDSKENAAYISMIKTAVENETPIHVFLKANTNEIAKVDKATDDDIRYFKSVFTKEVKEENRK | NanoDSF thermal unfolding temperature [4]: 85.3 °C
69.8 | 10 | ≥ 100 | variant deamidase propeptide V23S of Chryseobacterium sp-62563 (SEQ ID NO: 2) (other) NQDPNLVAKESNETAMKDFGKTSPVGIEKEDGKFKISFMVTAQPYEIKDSKENAAYISMIKTAVENETPIHVFLKANTNEIAKVDKATDDDIRYFKSVFTKEVKEENRK | –
76.4 | 20 | ≥ 100 | variant deamidase propeptide F99A of Chryseobacterium sp-62563 (SEQ ID NO: 2) (other) NQDPNLVAKESNETAMKDFGKTVPVGIEKEDGKFKISFMVTAQPYEIKDSKENAAYISMIKTAVENETPIHVFLKANTNEIAKVDKATDDDIRYFKSVATKEVKEENRK | –
65.2 | 2 | ≥ 100 | variant deamidase propeptide Y45G of Chryseobacterium sp-62563 (SEQ ID NO: 2) (other) NQDPNLVAKESNETAMKDFGKTVPVGIEKEDGKFKISFMVTAQPGEIKDSKENAAYISMIKTAVENETPIHVFLKANTNEIAKVDKATDDDIRYFKSVFTKEVKEENRK | –
73.7 | 2 | ≥ 100 | variant deamidase propeptide Y45T of Chryseobacterium sp-62563 (SEQ ID NO: 2) (other) NQDPNLVAKESNETAMKDFGKTVPVGIEKEDGKFKISFMVTAQPTEIKDSKENAAYISMIKTAVENETPIHVFLKANTNEIAKVDKATDDDIRYFKSVFTKEVKEENRK | –
76.2 | 26 | ≥ 100 | variant deamidase propeptide F38C of Chryseobacterium sp-62563 (SEQ ID NO: 2) (other) NQDPNLVAKESNETAMKDFGKTVPVGIEKEDGKFKISCMVTAQPYEIKDSKENAAYISMIKTAVENETPIHVFLKANTNEIAKVDKATDDDIRYFKSVFTKEVKEENRK | –
75.2 | 23 | ≥ 100 | variant deamidase propeptide Y94P of Chryseobacterium sp-62563 (SEQ ID NO: 2) (other) NQDPNLVAKESNETAMKDFGKTVPVGIEKEDGKFKISFMVTAQPYEIKDSKENAAYISMIKTAVENETPIHVFLKANTNEIAKVDKATDDDIRPFKSVFTKEVKEENRK | –
75.4 | 32 | ≥ 100 | variant deamidase propeptide F99K of Chryseobacterium sp-62563 (SEQ ID NO: 2) (other) NQDPNLVAKESNETAMKDFGKTVPVGIEKEDGKFKISFMVTAQPYEIKDSKENAAYISMIKTAVENETPIHVFLKANTNEIAKVDKATDDDIRYFKSVKTKEVKEENRK | –
74.1 | 20 | ≥ 100 | variant deamidase propeptide F99G of Chryseobacterium sp-62563 (SEQ ID NO: 2) (other) NQDPNLVAKESNETAMKDFGKTVPVGIEKEDGKFKISFMVTAQPYEIKDSKENAAYISMIKTAVENETPIHVFLKANTNEIAKVDKATDDDIRYFKSVGTKEVKEENRK | –
